Experimental data from the PETadex activity labels.

Experiments:
p-NP-C14 = conditions: pH 7; 37 °C
p-NP-C16 = conditions: pH 7; 37 °C
MHET = conditions: pH 8.5; 60 °C
p-NP-C4 = conditions: pH 8
[1] = pH 7, 30 °C, part of the chain shown

B1: unnamed (protein)
chain: MKEGKHFVLVHGACHGGWSWYKLKPLLEAAGHKVTALDLAASGTDLRKIEELRTLYDYTLPLMELMESLSADEKVILVGHSLGGMNLGLAMEKYPQKIYAAVFLAAFMPDSVHNSSFVLEQYNERTPAENWLDTQFLPYGSPEEPLTSMFFGPKFLAHKLYQLCSPEDLALASSLVRPSSLFMEDLSKAKYFTDERFGSVKRVYIVCTEDKGIPEEFQRWQIDNIGVTEAIEIKGADHMAMLCEPQKLCASLLEIAHKYN
Protein B1 has a Km (p-NP-C2; pH 7.2, 25 °C) of 1400 µM, a kcat (p-NP-C2; pH 7.2, 25 °C) of 2 s⁻¹ and a kcat/Km (p-NP-C2; pH 7.2, 25 °C) of 1430 M⁻¹ s⁻¹.

B2: unnamed (protein)
chain: MKEGKHFVLVHTACHGGWSWYKLKPLLEAAGHKVTALDLAASGTDLRKIEELRTLYDYTLPLMELMESLSADEKVILVGHSLGGMNLGLAMEKYPQKIYAAVFLAAFMPDSVHNSSFVLEQYNERTPAENWLDTQFLPYGSPEEPLTSMFFGPKFLAHKLYQLCSPEDLALASSLVRPSSLFMEDLSKAKYFTDERFGSVKRVYIVCTEDKGIPEEFQRWQIDNIGVTEAIEIKGADHKAMLCEPQKLCASLLEIAHKYN
For B2, the Km (p-NP-C2; pH 7.2, 25 °C) was 7600 µM, the kcat (p-NP-C2; pH 7.2, 25 °C) was 0.025 s⁻¹ and the kcat/Km (p-NP-C2; pH 7.2, 25 °C) was 3.29 M⁻¹ s⁻¹.

B3: unnamed (protein)
chain: MKEGKHFVLVHTACHGGWSWYKLKPLLEAAGHKVTALDLAASGTDLRKIEELRTLYDYTLPLMELMESLSADEKVILVGHSLGGMNLGLAMEKYPQKIYAAVFLAAFMPDSVHNSSFVLEQYNERTPAENWLDTQFLPYGSPEEPLTSMFFGPKFLAHKLYQLCSPEDLALASSLVRPSSLFMEDLSKAKYFTDERFGSVKRVYIVCTEDKGIPEEFQRWQIDNIGVTEAIEIKGADHMAMLCEPQKLCASLLEIAHKYN
With B3 the Km (p-NP-C2; pH 7.2, 25 °C) was 8700 µM, the kcat (p-NP-C2; pH 7.2, 25 °C) was 0.0283 s⁻¹ and the kcat/Km (p-NP-C2; pH 7.2, 25 °C) was 3.26 M⁻¹ s⁻¹.

B4: unnamed (protein)
chain: MESQVRGGTRWKRFAVVMVPSVAATAAIGVALAQGALAASFSVSGQSFKVTAQELNGTGFSQYGAIDQGYTLSGEKTAHPVAVSVFDTARIQKMCQSVVTPNIPLLGSVSLTLTAGDSADPEKQVNAKNLYIDVEDLGADAEFTNIDIGVAGKDISQGPGMKAGEVQKKQANPYGFAQQAEKAKLTDVKQTAWATTAGTFKLPGLKMKLQTGTHECY
Work on B4 yielded a Km (p-NP-C12; pH 7, 37 °C) of 4300 µM, a kcat (p-NP-C12; pH 7, 37 °C) of 1.4 s⁻¹ and a kcat/Km (p-NP-C12; pH 7, 37 °C) of 326 M⁻¹ s⁻¹. It also gave a Km (p-NP-C14) of 1100 µM, a kcat (p-NP-C14) of 4.5 s⁻¹ and a kcat/Km (p-NP-C14) of 4090 M⁻¹ s⁻¹. The Km (p-NP-C16) was 2100 µM, the kcat (p-NP-C16) was 2.9 s⁻¹ and the kcat/Km (p-NP-C16) was 1380 M⁻¹ s⁻¹.

B5: unnamed (protein)
chain: MTHQIVTTQYGKIKGTTENGVHKWKGIPYAKPPVGQWRFKAPEPPEVWEDVLDATAYGPVCPQPSDLLSLSYAELPRQSEDCLYVNVFAPDTPSQNLPVMVWIHGGAFYLGAGSEPLYDGSKLAAQGEVIVVTLNYRLGPFGFLHMSSFDEAYSDNLGLLDQAAALKWVRENISAFGGDPNNVTVFGESAGGMSIAALLAMPAAKGLFQKAIMESGASRTMTKEQAASTAAAFLQVLGINESQMDRLHTVAAEDLLKAADQLRIAEKENIFQLFFQPALDPKTLPAEPEKAIAEGAASGIPLLIGTTRDEGYLFFTPDSDVHSQETLDAALEYLLGKPLAEKAADLYPRSLESQIHMMTDLLFWRPAVAYASAQSHYAPVWMYRFDWHPEKPPYNKAFHALELPFVFGNAEVTDEVKQLSHSIQTAWITFAKTGNPSTEAVNWPAYQEETRETLILDSKITIENDPESEKRQKLFPSKGEAALEHHHHHH
B5 showed a Km (BHET; pH 7.5, 30 °C) of 80 µM, a kcat (BHET; pH 7.5, 30 °C) of 102 s⁻¹ and a kcat/Km (BHET; pH 7.5, 30 °C) of 1.28e+06 M⁻¹ s⁻¹.

B6: unnamed (protein)
chain: MAVMTPRRERSSLLSRALQVTAAAATALVTAVSLAAPAHAANPYERGPNPTDALLEASSGPFSVSEENVSRLSASGFGGGTIYYPRENNTYGAVAISPGYTGTEASIAWLGERIASHGFVVITIDTITTLDQPDSRAEQLNAALNHMINRASSTVRSRIDSSRLAVMGHSMGGGGTLRLASQRPDLKAAIPLTPWHLNKNWSSVTVPTLIIGADLDTIAPVATHAKPFYNSLPSSISKAYLELDGATHFAPNIPNKIIGKYSVAWLKRFVDNDTRYTQFLCPGPRDGLFGEVEEYRSTCPF
B6 was tested, and the Km (BHET; pH 8.5, 60 °C) was 39700 µM, the kcat (BHET; pH 8.5, 60 °C) was 26.8 s⁻¹ and the kcat/Km (BHET; pH 8.5, 60 °C) was 674 M⁻¹ s⁻¹. The Km (MHET) was 7330 µM, the kcat (MHET) was 0.31 s⁻¹ and the kcat/Km (MHET) was 42.3 M⁻¹ s⁻¹. The Km (p-NP-C4; 20 °C) was 312 µM, the kcat (p-NP-C4; 20 °C) was 304 s⁻¹ and the kcat/Km (p-NP-C4; 20 °C) was 973000 M⁻¹ s⁻¹. For the same protein, the Km (p-NP-C4; 60 °C) was 505 µM, the kcat (p-NP-C4; 60 °C) was 742 s⁻¹ and the kcat/Km (p-NP-C4; 60 °C) was 1.47e+06 M⁻¹ s⁻¹.

B7: unnamed (protein)
chain: MNFPRASRLMQAAVLGGLMAVSAAATAQTNPYARGPNPTAASLEASAGPFTVRSFTVSRPSGYGAGTVYYPTNAGGTVGAIAIVPGYTARQSSIKWWGPRLASHGFVVITIDTNSTLDQPSSRSSQQMAALRQVASLNGTSSSPIYGKVDTARMGVMGWSMGGGGSLISAANNPSLKAAAPQAPWDSSTNFSSVTVPTLIFACENDSIAPVNSSALPIYDSMSRNAKQFLEINGGSHSCANSGNSNQALIGKKGVAWMKRFMDNDTRYSTFACENPNSTRVSDFRTANCS
B7 was tested, and the Km (p-NP-C2; [1]) was 4600 µM, the kcat (p-NP-C2; [1]) was 27 s⁻¹ and the kcat/Km (p-NP-C2; [1]) was 5870 M⁻¹ s⁻¹.

B8: unnamed (protein)
chain: MERTVVETRYGRLRGGTNESVFVWKGIPYAKAPVGERRFLPPEPPDAWDGVREAAAFGPVVMQPSDPIFSGLLGRMSEAPSEDGLYLNIWSPAADGKKRPVLFWIHGGAFLFGSGSSPWYDGTAFAKHGDVVVVTINYRMNVFGFLHLGDLFGEAYAQAGNLGILDQVAALRWVKENIEAFGGDPDNITIFGESAGAASVGVLLSLSEASGLFRRAILQSGSGALLLRSPKTAMAMTERILERAGIRPGDRGRLLSIPSEELLRSALSLGPGIMYGPVVDGRVLRRHPIEALCDGAASGIPILIGVTKDEYNLFTLTDPSWTKLGEKELLDRINREVGPVPEAAIRYYAETAEPSAPDWQTWLRIMTYRVFVEGMLRTADAQAAHGADVYMYRFDYETPVFGGQLKACHALELPFVFHNLHQPGVANFVGNRPEREAIANEMHYAWLSFARTGDPNGDHLPEAWPAYTSERKAAFVFSAASHVEDDPFGRERAAWMTRT
B8 gave a Km (p-NP-C12; pH 7.4, 60 °C) of 22800 µM, a kcat (p-NP-C12; pH 7.4, 60 °C) of 0.993 s⁻¹ and a kcat/Km (p-NP-C12; pH 7.4, 60 °C) of 43.7 M⁻¹ s⁻¹.

B9: unnamed (protein)
chain: MAKEILVAYGVDIDAVAGWLGSYGGEDSPDDISRGLFAGEVGIPRLLKLFKKYHLPATWFSPGHSIETFSEQMKMIVDAGHEVGAHGYSHENPIAMTAKQEEDVLLKSVELIKDLTGKAPTGYVAPWWEFSNITNELLLKHGFKYDHSLMHNDFTPYYVRVGDSWSKIDYSLEAKDWMKPLIRGVETDLVEIPANWYLDDLPPMMFIKKSPNSFGFVSPHDIGQMWIDQFDWVYREMDYAVFSMTIHPDVSARPQVLLMHEKIIEHINKHEGVRWVTFNEIADDFLKRNPRKK
With B9 the Km (p-NP-C2; pH 6, 30 °C) was 180 µM, the kcat (p-NP-C2; pH 6, 30 °C) was 20.2 s⁻¹ and the kcat/Km (p-NP-C2; pH 6, 30 °C) was 112000 M⁻¹ s⁻¹.

B10: unnamed (protein)
chain: MTHQIVTTQYGKIKGTTENGVHKWKGIPYAKPPVGQWRFKAPEPPEVWEDVLDATAYGPVCPQPSDLLSLSYAELPRQSEDCLYVNVFAPDTPSQNLPVMVWIHGGAFYLGAGSEPLYDGSKLAAQGEVIVVTLNYRLGPFGFLHMSSFDEAYSDNLGLLDQAAALKWVRENISAFGGDPNNVTVFGESAGGMSIAALLAMPAAKGLFQKAIMESGASRTMTKEQAASTAAAFLQVLGINESQMDRLHTVAAEDLLKAADQLRIAEKENIFQLFFQPALDPKTLPAEPEKAIAEGAASGIPLLIGTTRDEGYLFFTPDSDVHSQETLDAALEYLLGKPLAEKAADLYPRSLESQIHMMTDLLFWRPAVAYASAQSHYAPVWMYRFDWHPEKPPYNKAFHALELPFVFGNLDGLERMAKAEVTDEVKQLSHSIQTAWITFAKTGNPSTEAVNWPAYQEETRETLILDSKITIENDPESEKRQKLFPSKGEAALEHHHHHH
B10 gave a Km (BHET; pH 7.5, 30 °C) of 100 µM, a kcat (BHET; pH 7.5, 30 °C) of 37.7 s⁻¹ and a kcat/Km (BHET; pH 7.5, 30 °C) of 377000 M⁻¹ s⁻¹.

B11: unnamed (protein)
chain: MFNQIGKKSALSLMAAGSLMFSATALAIGGGGSGGGNNGGGGGCEADCGYERGPDPSVSLLEASTGPFSVRTSNVSSSVRGFGGGTIHYPTNTTGTMAAIVVIPGFVSPESSIAWWGPKLASHGFVVMTIGTNSGFDQPASRASQLNNALDYLIEQNGSSRSPINGMIDTDRLGVMGWSMGGGGTLRVATEGRVSAAIPLAPWDSSSSQFRSIDTPTLIFACENDSTAPVRSHADPFYDAIPDSTAKAFVELDGGGHTCANGSSGFGGSYNDVLSRLGVSWMKLHLDKDQRYNQFVCGPNHESDRSISEYRGTCPY
B11 gave a Km (p-NP-C2; 20 °C) of 2100 µM, a kcat (p-NP-C2; 20 °C) of 4.74 s⁻¹ and a kcat/Km (p-NP-C2; 20 °C) of 2260 M⁻¹ s⁻¹.

B12: unnamed (protein)
chain: MFGKLPFARASLAVGALLLSAAAVAQTNPYQRGPDPTVSSLEATRGPFSTSSFTVSRPSGYGAGTVYYPTNAGGKVGAIAVVPGYTARQSSINWWGPRLASHGFVVITIDTNSTLDQPSSRSSQQMAALRQVVSLAGTSSSPIYNKVDTARLGVMGWSMGGGGSLISAKNNPSLRAAAPQAPWAQESFSSVTVPTLIVSCENDSIAPNSSHSFPFYNQMTRNKKANLVINGGSHSCANSGNSDAGLIGKYGVAWMKRFMDDDTRYSKFLCGAEHQADLSKRAVEAYKENCPY
Work on B12 yielded a kcat (BHET; 48.5 °C) of 28.5 s⁻¹.
